This is an account of results in patent US20140363432A1.

Test [1] addresses recombinant hVEGF (165 amino acids) (human) (UniProt P15692). The experiment in a line: cell-based or functional assay.
Test [2] has the same target. Kind of test: 125I-hVEGF binding to bovine ACE cells with antibody (FIG. 3b). The settings on record: scale: molar ratio of antibody to hVEGF.
For test [3] the target is unchanged. Kind of test: competitive binding of 125I-hVEGF against unlabeled hVEGF, immune complexes precipitated, Scatchard analysis.

Chain of UniProt P15692 (P15692 other isoform, or with tags, fused parts or gaps): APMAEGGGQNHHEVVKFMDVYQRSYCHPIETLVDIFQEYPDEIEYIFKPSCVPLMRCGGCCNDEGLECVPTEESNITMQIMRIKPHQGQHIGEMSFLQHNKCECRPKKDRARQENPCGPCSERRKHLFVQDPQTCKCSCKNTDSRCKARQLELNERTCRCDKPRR

As for “anti-hVEGF monoclonal antibody produced by the A4.6.1 hybridoma”, the inhibition of hVEGF mitogenic activity on bovine ACE cells in test [1] was over 90 % inhibition. For the same substance, the molar ratio of hVEGF to antibody at complete inhibition of hVEGF binding to bovine ACE cells in test [2] stood at 250. Also, the Ka in test [3] stood at 1.2e+09 M⁻¹.
